Data reported in the supplement of paper PMC10126150.
± gives the standard deviation of the averaged measurements.

test system: ATP; assay: switch fluorescence ratio, 500 uM ATP over buffer (Cy3 cluster intensity, sum of 5 cycles each) (fold (ratio)); higher = stronger signal-on switching upon ATP binding; sequences stand for … in TCGTCGGCAGCGTCAGATGTGTATAAGAGACAGTTTTTTTTTTTTTTTTTTTTTTTTT…TC; conditions: aptamer strand: ATP DNA aptamer (quencher-CACCTGGGGGAGTATTGCGGAGGAAGG + anchor), 100 nM annealed; ATP concentration: 500 uM
Method in brief: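 Imaging in selection buffer was followed by imaging after 15 min with 500 uM ATP at 22 °C, for Cy3-labelled switching-strand clusters annealed to 100 nM quencher-labelled ATP aptamer on a modified Illumina MiSeq flow-cell. Five of these buffer/ATP cycles ran, separated by NaOH stripping and re-annealing. The fluorescence ratio per cluster is summed target-cycle over summed buffer-cycle Cy3 intensity, averaged per switch-domain sequence; clusters outside 100-1000 RFU were removed.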
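Further: ATP exposure 15 min at 22 °C before imaging.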

First: TTTACGTCAG
Second: TTTACTAGAT
The switch fluorescence ratio of the first is lower: 1.013 ± 0.0034 for the first, 1.05 ± 0.012 for the second.

First: TTTACTATAT
Second: TTTACTATGG
The switch fluorescence ratio of the first is higher: 1.04 ± 0.032 for the first, 0.9984 ± 0.0023 for the second.

First: TTTACTTAGT
Second: TTTACTTGCG
The switch fluorescence ratio of the first is higher: 1.02 ± 0.018 for the first, 0.9759 ± 0.0038 for the second.

TTTACTTTGC and TTTACTTTTT are within error of each other in switch fluorescence ratio: 1.48 ± 0.69 for the first, 1.01 ± 0.027 for the second.

TTTAGAAAAC and TTTAGAAAAT are within error of each other in switch fluorescence ratio: 0.984 ± 0.037 for the first, 1.01 ± 0.0098 for the second.

TTTAGAAATC and TTTAGAAGGC are the same in switch fluorescence ratio: 1.08 ± 0.16 for the first, 1.08 ± 0.11 for the second.

TTTAGAAGGG and TTTAGAATGT are within error of each other in switch fluorescence ratio: 0.979 ± 0.051 for the first, 0.994 ± 0.019 for the second.

TTTAGACCAG and TTTAGACCCT are the same in switch fluorescence ratio: 1.01 ± 0.059 for the first, 1.013 ± 0.0046 for the second.

TTTAGAGAGC and TTTAGAGGAA are within error of each other in switch fluorescence ratio: 0.987 ± 0.051 for the first, 0.977 ± 0.032 for the second.

TTTAGAGTTC and TTTAGATTTG are within error of each other in switch fluorescence ratio: 0.997 ± 0.021 for the first, 1.024 ± 0.0048 for the second.

First: TTTAGCACAG
Second: TTTAGCAGCT
The switch fluorescence ratio of the first is higher: 1.06 ± 0.017 for the first, 0.993 ± 0.014 for the second.

Going from TTTAGCGACG to TTTAGCGCGG, the switch fluorescence ratio falls from 1.069 ± 0.0098 to 1 ± 0.029.

Compared with TTTAGCTCTG, TTTAGCTTAT is lower in switch fluorescence ratio: 1.02 ± 0.019 for the first, 0.9798 ± 0.0056 for the second.

TTTAGGAAAA and TTTAGGACTT are within error of each other in switch fluorescence ratio: 1 ± 0.029 for the first, 0.994 ± 0.021 for the second.

TTTAGGCAGG and TTTAGGGAAT are within error of each other in switch fluorescence ratio: 0.988 ± 0.022 for the first, 1 ± 0.013 for the second.

TTTAGGGAGG and TTTAGGGATA are within error of each other in switch fluorescence ratio: 0.974 ± 0.026 for the first, 1.09 ± 0.19 for the second.

TTTAGGGCGC and TTTAGGGGAC are within error of each other in switch fluorescence ratio: 1.05 ± 0.044 for the first, 1 ± 0.012 for the second.

TTTAGGGGGG and TTTAGGGTG are within error of each other in switch fluorescence ratio: 1.01 ± 0.099 for the first, 1.05 ± 0.061 for the second.

Compared with TTTAGGGTTA, TTTAGGTTGC is lower in switch fluorescence ratio: 1.01 ± 0.016 for the first, 0.9817 ± 0.0056 for the second.

TTTAGTATGG and TTTAGTATGT are within error of each other in switch fluorescence ratio: 1.02 ± 0.042 for the first, 1.013 ± 0.0025 for the second.

TTTAGTCACT and TTTAGTCGGG are within error of each other in switch fluorescence ratio: 1.03 ± 0.022 for the first, 1.02 ± 0.046 for the second.

Going from TTTAGTCTCA to TTTAGTGCGG, the switch fluorescence ratio falls from 1.017 ± 0.0089 to 0.973 ± 0.033.

TTTAGTGTCT and TTTAGTGTTG are within error of each other in switch fluorescence ratio: 0.983 ± 0.021 for the first, 0.957 ± 0.041 for the second.

TTTAGTGTTT and TTTAGTTGAG are within error of each other in switch fluorescence ratio: 1.004 ± 0.007 for the first, 0.971 ± 0.025 for the second.

TTTAGTTGGT and TTTAGTTGTA are within error of each other in switch fluorescence ratio: 1 ± 0.08 for the first, 1.018 ± 0.0077 for the second.

TTTAGTTTCG and TTTATAAGAT are within error of each other in switch fluorescence ratio: 1.02 ± 0.025 for the first, 1.01 ± 0.012 for the second.

Compared with TTTATAATTG, TTTATAATTT is lower in switch fluorescence ratio: 1.03 ± 0.028 for the first, 0.981 ± 0.018 for the second.

TTTATACCGC and TTTATACTCT are within error of each other in switch fluorescence ratio: 1.13 ± 0.071 for the first, 1.08 ± 0.026 for the second.

TTTATAGAGC and TTTATAGCGT are within error of each other in switch fluorescence ratio: 1.03 ± 0.054 for the first, 0.974 ± 0.038 for the second.

TTTATAGGTC and TTTATATGGC are within error of each other in switch fluorescence ratio: 0.994 ± 0.038 for the first, 1.03 ± 0.08 for the second.

TTTATCACAG and TTTATCAGTG are within error of each other in switch fluorescence ratio: 1.014 ± 0.0041 for the first, 0.987 ± 0.031 for the second.

First: TTTATCCCGA
Second: TTTATCCTAG
The switch fluorescence ratio of the first is higher: 1.03 ± 0.048 for the first, 0.976 ± 0.003 for the second.

Compared with TTTATCGCAG, TTTATCGTCT is higher in switch fluorescence ratio: 0.994 ± 0.039 for the first, 1.12 ± 0.068 for the second.

TTTATGAAAA and TTTATGAGAC are the same in switch fluorescence ratio: 1.025 ± 0.0066 for the first, 1.02 ± 0.065 for the second.

TTTATGAGG and TTTATGAGT are within error of each other in switch fluorescence ratio: 0.997 ± 0.019 for the first, 0.987 ± 0.022 for the second.

TTTATGATCG and TTTATGCTGC are within error of each other in switch fluorescence ratio: 0.977 ± 0.039 for the first, 1.05 ± 0.038 for the second.

TTTATGGATT and TTTATGGGAA are the same in switch fluorescence ratio: 1.006 ± 0.01 for the first, 1.01 ± 0.026 for the second.

TTTATGGGGA and TTTATGGTTC are within error of each other in switch fluorescence ratio: 1 ± 0.02 for the first, 0.992 ± 0.01 for the second.

TTTATGTCGG and TTTATGTCTA are within error of each other in switch fluorescence ratio: 1.004 ± 0.0091 for the first, 1.02 ± 0.024 for the second.

TTTATGTGTT and TTTATGTTTT are within error of each other in switch fluorescence ratio: 0.984 ± 0.021 for the first, 0.965 ± 0.041 for the second.

TTTATTATGA and TTTATTCGAA are within error of each other in switch fluorescence ratio: 1.01 ± 0.026 for the first, 0.99821 ± 0.00092 for the second.

TTTATTCTTT and TTTATTGACT are within error of each other in switch fluorescence ratio: 1 ± 0.021 for the first, 1.03 ± 0.013 for the second.

TTTATTGCGG and TTTATTGGAC are the same in switch fluorescence ratio: 1.01 ± 0.043 for the first, 1.01 ± 0.078 for the second.

TTTATTGGCG and TTTATTGTCC are within error of each other in switch fluorescence ratio: 1.01 ± 0.035 for the first, 0.975 ± 0.034 for the second.

TTTATTGTT and TTTATTTATA are within error of each other in switch fluorescence ratio: 0.99 ± 0.018 for the first, 1.01 ± 0.025 for the second.

TTTATTTCTA and TTTATTTGAA are within error of each other in switch fluorescence ratio: 0.981 ± 0.013 for the first, 1.01 ± 0.025 for the second.

TTTATTTGGT and TTTATTTTGT are within error of each other in switch fluorescence ratio: 1.03 ± 0.041 for the first, 1 ± 0.038 for the second.

TTTATTTTTC and TTTCAAAACA are within error of each other in switch fluorescence ratio: 1.04 ± 0.046 for the first, 1.0474 ± 0.00015 for the second.

TTTCAAATTC and TTTCAAGTGG are within error of each other in switch fluorescence ratio: 0.981 ± 0.026 for the first, 1.014 ± 0.0096 for the second.

TTTCACACGG and TTTCACCTTT are within error of each other in switch fluorescence ratio: 1.04 ± 0.066 for the first, 1.02 ± 0.047 for the second.
